In patent US20210015870A1 (PROMAB BIOTECHNOLOGIES, published 2021):

Experiments:
[1] = target: T1, CD18 protein fused with human Fc protein, expressed in transfected 293 cells (UniProt P05107 23-700, limits assumed); experiment: immunostaining of transfected 293 cells
T1 construct: Negative control for immunostaining; also called control CD18 protein; CD18-human Fc protein; not shown: human Fc
Description: We transfected 293 cells either with BCMA (CD269)-human Fc protein or control CD18 protein fused with human Fc protein and performed immunostaining analysis. […] By IHC, clone 4C8A bound to RPMI8226 cells, myeloma primary tumors and normal human liver, but not to any other normal or other type cancer human tissues, confirming the specificity of BCMA expression. BCMA antibody detected also BCMA in primary multiple myeloma tumors.

[2] = target: T2, BCMA protein (recombinant human BCMA) (human, UniProt Q02223 1-54); experiment: BLItz biolayer interferometry, anti-mouse IgG biosensor, antibody at 100, 50 and 25 nM
T2 construct: also called BCMA antigen; BCMA recombinant protein
T2 sequence: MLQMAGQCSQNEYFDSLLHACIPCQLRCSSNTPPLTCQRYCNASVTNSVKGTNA
Procedure: The BCMA 4C8A antibody was diluted to 100, 50 and 25 nM and added to the anti-mouse IgG biosensor (ForteBio Corp., Menlo Park, Calif.). After 5 minutes, the biosensor was rinsed free of unbound antibody. Binding was monitored by the BLItz system (ForteBio), and the antibody's dissociation constant was determined with the BLItz software.

[3] = target: T3, BCMA peptide (BCMA extracellular domain protein with a C-terminal deletion of 37 residues) (human); experiment: ELISA, plate coated with BCMA peptide, HRP anti-mouse IgG and TMB, OD450
T3 construct: also called BCMA shorter peptide; shorter peptide from BCMA extracellular domain
T3 peptide: MLQMAGQCSQNEYFDSL
Procedure: We generated mouse monoclonal anti-human BCMA monoclonal antibody 4C8A using hybridoma. Dilutions of the antibody were incubated in ELISA plates coated with BCMA protein, or BCMA peptide (BCMA extracellular domain protein with a C-terminal deletion of 37 residues), or an irrelevant control CD363 protein. Binding of BCMA mAb 4C8A to the coated protein was detected with HRP-conjugated anti-mouse IgG and TMB substrate. […] The binding of BCMA to BCMA protein was in a dose-dependent manner: decreased with […] in contrast to negative controls (FIG. 4).

T1 sequence (P05107 23-700 limits assumed): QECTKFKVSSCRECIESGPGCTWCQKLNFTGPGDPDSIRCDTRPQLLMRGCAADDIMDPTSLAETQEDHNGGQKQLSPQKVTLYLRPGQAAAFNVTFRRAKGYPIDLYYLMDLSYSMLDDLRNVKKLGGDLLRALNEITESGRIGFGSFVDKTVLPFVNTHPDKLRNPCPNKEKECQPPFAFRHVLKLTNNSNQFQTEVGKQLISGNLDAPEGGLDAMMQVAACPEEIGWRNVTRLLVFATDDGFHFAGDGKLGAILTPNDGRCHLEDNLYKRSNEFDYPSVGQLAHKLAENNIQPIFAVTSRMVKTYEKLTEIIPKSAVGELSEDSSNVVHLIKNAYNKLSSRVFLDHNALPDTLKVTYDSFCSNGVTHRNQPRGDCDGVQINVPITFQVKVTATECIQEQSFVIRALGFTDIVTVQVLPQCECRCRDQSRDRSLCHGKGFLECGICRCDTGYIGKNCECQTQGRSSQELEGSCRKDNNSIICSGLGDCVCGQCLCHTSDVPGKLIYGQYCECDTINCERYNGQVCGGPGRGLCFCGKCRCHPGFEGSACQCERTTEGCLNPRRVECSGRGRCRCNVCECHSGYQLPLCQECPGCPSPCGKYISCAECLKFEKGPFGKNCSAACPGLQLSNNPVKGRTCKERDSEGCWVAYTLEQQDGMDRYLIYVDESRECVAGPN

B1: mouse monoclonal anti-human BCMA antibody clone 4C8A (antibody, mouse IgG1, V domains shown)
VH: VQLQQSGPELVKPGASVKMSCKASGYTFTSYVMHWVKQKPGQGLEWIGYIIPYNDATKYNEKFKGKATLTSDKSSSTAYMELSSLTSEDSAVYYCARYNYDGYFDVWGAGTTVTVSS
VL: DIVMTQSPATLSVTPGDRVSLSCRASQSISDYLHWYQQKSHESPRLLIKYASQSISGIPSRFSGSGSGSDFTLSINSVEPEDVGVYYCQNGHSFPPTFGGGTKLEIK
notes: also called BCMA mAb 4C8A; BCMA 4C8A antibody
[1]
  binding result: no binding
[2]
  Kd: ~2.8 nM
[3]
  binding result: no binding
